The record followed here is paper PMC7082061 (PLoS Pathogens, 2020).

The target in the test is full-length wild type MOKV G (MOKV G WT) (Mokola virus) (UniProt P0C572). Put plainly: negative staining electron microscopy.

Chain of full-length wild type MOKV G (MOKV G WT) (P0C572 20-522): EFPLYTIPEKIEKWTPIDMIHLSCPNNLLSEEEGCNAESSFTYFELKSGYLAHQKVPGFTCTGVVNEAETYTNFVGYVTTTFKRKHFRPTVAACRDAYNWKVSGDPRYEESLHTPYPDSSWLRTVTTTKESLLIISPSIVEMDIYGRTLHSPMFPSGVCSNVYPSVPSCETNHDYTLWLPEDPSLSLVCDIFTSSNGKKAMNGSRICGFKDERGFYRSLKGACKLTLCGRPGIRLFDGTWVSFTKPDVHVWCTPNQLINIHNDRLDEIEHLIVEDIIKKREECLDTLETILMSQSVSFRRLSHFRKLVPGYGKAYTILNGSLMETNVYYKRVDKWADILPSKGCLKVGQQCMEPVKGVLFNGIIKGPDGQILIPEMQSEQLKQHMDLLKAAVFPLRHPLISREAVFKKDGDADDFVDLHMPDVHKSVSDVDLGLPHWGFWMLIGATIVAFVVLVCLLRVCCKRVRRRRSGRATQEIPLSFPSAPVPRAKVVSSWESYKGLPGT

On to “full-length wild type MOKV G (MOKV G WT) (from UniProt P0C572 20-522) (natural protein)”, for which the stoichiometry N (in general, a count of units in the complex or per binding partner) was 3.
